According to PMC7478896, “EphrinB2-EphB4 signalling provides Rho-mediated homeostatic control of lymphatic endothelial cell junction integrity” (eLife, 2020):

Target: T1, EphB4 (human (endogenous in HDLEC), UniProt P54760 16-987)
T1 sequence (looked up): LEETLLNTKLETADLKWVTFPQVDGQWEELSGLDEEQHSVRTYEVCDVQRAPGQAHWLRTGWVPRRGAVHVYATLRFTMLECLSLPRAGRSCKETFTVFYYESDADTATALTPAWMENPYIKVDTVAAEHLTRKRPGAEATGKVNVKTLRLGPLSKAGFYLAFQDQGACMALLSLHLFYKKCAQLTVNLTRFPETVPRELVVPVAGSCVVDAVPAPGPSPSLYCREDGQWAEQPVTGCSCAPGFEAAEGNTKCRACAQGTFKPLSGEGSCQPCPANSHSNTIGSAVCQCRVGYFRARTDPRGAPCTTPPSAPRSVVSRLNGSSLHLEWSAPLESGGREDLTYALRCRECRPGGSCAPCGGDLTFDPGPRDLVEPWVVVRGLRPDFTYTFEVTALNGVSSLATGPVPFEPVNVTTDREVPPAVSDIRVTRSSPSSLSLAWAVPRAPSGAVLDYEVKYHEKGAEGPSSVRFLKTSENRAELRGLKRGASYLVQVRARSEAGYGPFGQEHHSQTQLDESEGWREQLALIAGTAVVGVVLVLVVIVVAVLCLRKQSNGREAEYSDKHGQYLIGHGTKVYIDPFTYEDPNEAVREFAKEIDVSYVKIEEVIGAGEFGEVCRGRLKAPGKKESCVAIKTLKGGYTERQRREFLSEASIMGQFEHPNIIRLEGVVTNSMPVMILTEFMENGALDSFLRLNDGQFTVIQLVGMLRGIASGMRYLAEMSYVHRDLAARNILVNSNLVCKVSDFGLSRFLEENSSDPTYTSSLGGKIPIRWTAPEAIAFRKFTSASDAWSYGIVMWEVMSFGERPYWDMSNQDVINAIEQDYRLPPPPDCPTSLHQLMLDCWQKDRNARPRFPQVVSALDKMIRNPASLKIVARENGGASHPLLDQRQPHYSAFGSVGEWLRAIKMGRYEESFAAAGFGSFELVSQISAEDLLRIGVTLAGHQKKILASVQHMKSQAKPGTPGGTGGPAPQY
Assay: cell-based or functional assay

Rac1 activity (Rac1-GTP pull-down) in HDLECs after 30 min stimulation with 0.5 µg/ml clustered EphrinB2-Fc: 2 fold
B1: recombinant human EphrinB2-Fc (Fc fusion, UniProt P52799 28-229, looked up)
chain: IVLEPIYWNSSNSKFLPGQGLVLYPQIGDKLDIICPKVDSKTVGQYEYYKVYMVDKDQADRCTIKKENTPLLNCAKPDQDIKFTIKFQEFSPNLWGLEFQKNKDYYIISTSNGSLEGLDNQEGGVCQTRAMKILMKVGQDASSAGSTRNKDPTRRPELEAGTNGRSSTTSPFVKPNPGSSTDGNSAGHSGNNILGSEVALFA
